Assay results taken from ChEMBL document CHEMBL2074029, “Substrate specificities of rat oatp1 and ntcp: implications for hepatic organic anion uptake” (Am J Physiol Gastrointest Liver Physiol, 2003).

Experiments:
Type in all cases: functional, cell-based
[1] = substrate: C[C@H](CCC(=O)NCCS(=O)(=O)O)C1CC[C@H]2[C@@H]3C[C@H](O)[C@@H]4C[C@H](O)CC[C@]4(C)[C@H]3CC[C@]12C; assay: (§1) TP_TRANSPORTER: uptake in Oatp1-expressing HeLa cells
[2] = substrate: C[C@H](CCC(=O)O)[C@H]1CC[C@H]2[C@@H]3C[C@H](O)[C@@H]4C[C@H](O)CC[C@]4(C)[C@H]3CC[C@]12C; assay: as §1
[3] = substrate: C[C@H](CCC(=O)NCCS(=O)(=O)O)[C@H]1CC[C@H]2[C@@H]3CC[C@@H]4C[C@H](O)CC[C@]4(C)[C@H]3C[C@H](O)[C@]12C; assay: as §1
[4] = substrate: C[C@H](CCC(=O)NCCS(=O)(=O)O)C1CC[C@H]2[C@@H]3C[C@H](O)[C@@H]4C[C@H](O)CC[C@]4(C)[C@H]3CC[C@]12C; assay: (§2) TP_TRANSPORTER: uptake in NTCP-expressing HeLa cells
[5] = substrate: C[C@H](CCC(=O)NCCS(=O)(=O)O)[C@H]1CC[C@H]2[C@@H]3CC[C@@H]4C[C@H](O)CC[C@]4(C)[C@H]3C[C@H](O)[C@]12C; assay: as §2
[6] = substrate: O=C1OC(c2ccc(O)c(S(=O)(=O)O)c2)(c2ccc(O)c(S(=O)(=O)O)c2)c2c(Br)c(Br)c(Br)c(Br)c21; assay: as §2

Protein | Km [1] | Km [2] | Km [3] | Km [4] | Km [5] | Km [6]
Solute carrier organic anion transporter family member 1A1 (Rattus norvegicus) (protein) MEETEKKIATQEGRLFSKMKVFLLSLTCACLTKSLSGVYMNSMLTQIERQFDISTSVAGLINGSFEIGNLFFIVFVSYFGTKLHRPVVIGIGCVIMGLGCLLMSLPHFFMGRYEYETTISPTGNLSSNSFLCMENRTQTLKPTQDPAECVKEMKSLMWICVMVGNIIRGIGETPIVPLGISYIEDFAKSENSPLYIGILEMGKVAGPIFGLLLGSYCAQIYVDIGSVNTDDLTITPSDTRWVGAWWIGFLVCAGVNILTSIPFFFLPKALPKKGQQENVAVTKDGKVEKYGGQAREENLGITKDFLTFMKRLFCNPIYMLFILTSVLQVNGFINKFTFLPKYLEQQYGKSTAEAIFLIGVYSLPPICLGYLIGGFIMKKFKITVKKAAYLAFCLSVFEYLLFLCHFMLTCDNAAVAGLTTSYKGVQHQLHVESKVLADCNTRCSCSTNTWDPVCGDNGVAYMSACLAGCKKFVGTGTNMVFQDCSCIQSLGNSSAVLGLCKKGPECANRLQYFLILTIIISFIYSLTAIPGYMVFLRCVKSEEKSLGVGLHTFCIRVFAGIPAPVYFGALIDRTCLHWGTLKCGQRGACRMYDINSFRHIYLGLPIALRGSSYLPAFFILILMRKFQFPGDIDSSATDHTEMMLGEKESEHTDVHGSPQVENDGELKTKL | 3.3 µM | 17.5 µM | 3.5 µM | – | – | –
Hepatic sodium/bile acid cotransporter (Rattus norvegicus) (protein) MEVHNVSAPFNFSLPPGFGHRATDKALSIILVLMLLLIMLSLGCTMEFSKIKAHLWKPKGVIVALVAQFGIMPLAAFLLGKIFHLSNIEALAILICGCSPGGNLSNLFTLAMKGDMNLSIVMTTCSSFSALGMMPLLLYVYSKGIYDGDLKDKVPYKGIMISLVIVLIPCTIGIVLKSKRPHYVPYILKGGMIITFLLSVAVTALSVINVGNSIMFVMTPHLLATSSLMPFSGFLMGYILSALFQLNPSCRRTISMETGFQNIQLCSTILNVTFPPEVIGPLFFFPLLYMIFQLAEGLLIIIIFRCYEKIKPPKDQTKITYKAAATEDATPAALEKGTHNGNIPPLQPGPSPNGLNSGQMAN | – | – | – | 6.8 µM | 7.4 µM | 3.7 µM
